In this assay the target is CRF2-4/zcytor11 heterodimeric receptor (on BaF3/CRF2-4/zcytor11 cells) (human) (UniProt Q08334). The experiment in a line: cell-based or functional assay.
Chain of CRF2-4/zcytor11 heterodimeric receptor (on BaF3/CRF2-4/zcytor11 cells) (human) (Q08334 20-325 limits assumed, chain 1 of 2): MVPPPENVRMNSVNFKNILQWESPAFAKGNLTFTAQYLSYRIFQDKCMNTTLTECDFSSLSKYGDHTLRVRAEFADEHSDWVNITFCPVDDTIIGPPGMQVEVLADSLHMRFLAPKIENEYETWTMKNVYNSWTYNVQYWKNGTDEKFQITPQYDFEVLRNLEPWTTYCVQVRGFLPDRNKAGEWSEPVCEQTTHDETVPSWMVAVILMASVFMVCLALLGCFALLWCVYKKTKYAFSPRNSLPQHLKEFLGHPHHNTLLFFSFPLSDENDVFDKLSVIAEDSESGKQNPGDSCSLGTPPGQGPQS
Chain of CRF2-4/zcytor11 heterodimeric receptor (on BaF3/CRF2-4/zcytor11 cells) (human) (chain, as listed by the source limits assumed, chain 2 of 2): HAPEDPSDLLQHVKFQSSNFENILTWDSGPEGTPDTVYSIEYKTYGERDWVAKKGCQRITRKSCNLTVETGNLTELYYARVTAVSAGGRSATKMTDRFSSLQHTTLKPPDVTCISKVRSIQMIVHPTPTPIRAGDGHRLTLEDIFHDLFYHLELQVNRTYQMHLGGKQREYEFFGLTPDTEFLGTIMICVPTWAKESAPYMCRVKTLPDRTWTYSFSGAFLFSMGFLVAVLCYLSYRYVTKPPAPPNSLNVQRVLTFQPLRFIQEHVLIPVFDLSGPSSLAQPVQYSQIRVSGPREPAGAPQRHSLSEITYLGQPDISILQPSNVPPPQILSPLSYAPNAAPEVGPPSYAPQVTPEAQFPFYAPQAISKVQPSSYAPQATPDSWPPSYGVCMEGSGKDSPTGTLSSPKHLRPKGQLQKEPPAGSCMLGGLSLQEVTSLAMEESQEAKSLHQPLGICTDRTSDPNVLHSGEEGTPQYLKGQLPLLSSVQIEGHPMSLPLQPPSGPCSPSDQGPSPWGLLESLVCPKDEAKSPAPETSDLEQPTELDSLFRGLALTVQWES

“purified human IL-TIF-CEE (IL-TIF with C-terminal Glu-Glu tag) (from UniProt Q9GZX6 34-179) (ligand)” returned a proliferation of BaF3/CRF2-4/zcytor11 cells (Alamar Blue), IL-TIF-CEE at 0.06 ng/ml (fold induction) of 2 and a proliferation of BaF3/CRF2-4/zcytor11 cells (Alamar Blue), IL-TIF-CEE at 50 ng/ml (fold over background) of 15.

For the origin of these results see US20030077706A1.
